Assay results as given in PMC7293249.

Experiments:
[1] = biological target: human activated protein C (human) (UniProt P04070)
[2] = biological target: human activated protein C (human) (UniProt P04070); remark: listed apart in the source
[3] = biological target: human activated protein C (human) (UniProt P04070); remark: listed apart in the source
[4] = biological target: human activated protein C (human) (UniProt P04070); assay: ELISA; hAPC or hPC coated directly on Maxisorp plates at 100 ng/well in PBS/Ca2+; antibodies titrated, 1 h at RT; detection with HRP anti-human Fc
[5] = biological target: human activated protein C (human) (UniProt P04070); remark: listed apart in the source
[6] = biological target: human activated protein C (human) (UniProt P04070); assay: ELISA; APC-binding ELISA of the purified Fabs on human APC and Gla-domainless APC; format not told

inhibition of APC amidolytic activity (Spectrozyme PCa), IC50 [1] [nM] | maximal inhibition of APC amidolytic activity (Spectrozyme PCa), mAb 0.5-500 nM [1] [%] | Protac-aPTT in FVIII-antibody-treated normal human plasma, IC50 [2] [nM] | Protac-aPTT in hemophilia A plasma, inhibition of APC activity, IC50 [2] [nM] | Protac-aPTT in hemophilia A plasma, maximal inhibition of APC activity [2] [%] | TM–TGA in normal human plasma, increase of thrombin generation, EC50 [3] [nM] | EC50 [4] [nM] | Protac-aPTT in normal human plasma, inhibition of APC anticoagulant activity, IC50 [5] [nM] | Protac-aPTT in normal human plasma, maximal inhibition of APC anticoagulant activity [5] [%] | EC50 [6] [nM] | Binder
4.8 | 98 | 5 | 5 | 87 | 38 | 0.4 | 7 | 93 |  | type I anti-APC mAb TPP-2312 (BAY1316786) (antibody, V domains shown) VH: EVQLLESGGGLVQPGGSLRLSCAASGFTFSSYWMSWVRQAPGKGLEWVSGVSWNGARTHYADSVKGRFTISRDNSKNTLYLQMNSLRAEDTAVYYCALTGRSGWMRFPNWFDPWGQGTLVTVSS VL: QSVLTQPPSVSGAPGQRVTISCTGSSSNIGAAYDVHWYQQLPGTAPKLLIYGNNKRPSGVPDRFSGSKSGTSASLAITGLQAEDEADYYCQSYDSSLSGSVFGGGTKLTVL
 |  |  |  |  |  |  |  |  | 2 to 4 | C25K23Fab (type I Fab, TTP-2781) (Fab, V domains shown) VH: EVQLLESGGGLVQPGGSLRLSCAASGFTFSSYWMSWVRQAPGKGLEWVSGVSWNGSRTHYADSVKGRFTISRDNSKNTLYLQMNSLRAEDTAVYYCALTGRSGWMRFPNWFDPWGQGTLVTVTS VL: QSVLTQPPSASGTPGQRVTISCTGSSSNIGAAYDVHWYQQLPGTAPKLLIYGNNKRPSGVPDRFSGSKSGTSASLAISGLRSEDEADYYCQSYDSSLSGSVFGGGTKLTVL
